In patent US20240239899A1 (Memorial Sloan Kettering, published 2024):

B1: 6B1 mAb (TCR mimic, full length human IgG1) (antibody, V domains shown)
VH: EVQLLESGGGLVQPGGSLRLSCAASGFTFSSYAMSWVRQAPGKGLEWVSEISGGGGYTDYADSVKGRFTISRDNSKNTLYLQMNSLRAEDTAVYYCARQMYYYYGMDVWGQVTTVTVSS
VL: EIVLTQSPGTLSLSPGERATLSCRASQSVSANYLAWYQQKPGQAPRLLIYGASSRATGIPDRFSGSGSGTDFTLTISRLEPEDFAVYYCQQSYQRPLTFGQGTKVEIK
notes: Full length human IgG1; Conjugated to APC for direct staining of tumor cell lines; also called mAb 6B1; Mab 6B1
B2: 6B1 BisAb h2+2 (L2K scFv inserted into the upper hinge of 6B1 IgG1) (bispecific antibody)
heavy: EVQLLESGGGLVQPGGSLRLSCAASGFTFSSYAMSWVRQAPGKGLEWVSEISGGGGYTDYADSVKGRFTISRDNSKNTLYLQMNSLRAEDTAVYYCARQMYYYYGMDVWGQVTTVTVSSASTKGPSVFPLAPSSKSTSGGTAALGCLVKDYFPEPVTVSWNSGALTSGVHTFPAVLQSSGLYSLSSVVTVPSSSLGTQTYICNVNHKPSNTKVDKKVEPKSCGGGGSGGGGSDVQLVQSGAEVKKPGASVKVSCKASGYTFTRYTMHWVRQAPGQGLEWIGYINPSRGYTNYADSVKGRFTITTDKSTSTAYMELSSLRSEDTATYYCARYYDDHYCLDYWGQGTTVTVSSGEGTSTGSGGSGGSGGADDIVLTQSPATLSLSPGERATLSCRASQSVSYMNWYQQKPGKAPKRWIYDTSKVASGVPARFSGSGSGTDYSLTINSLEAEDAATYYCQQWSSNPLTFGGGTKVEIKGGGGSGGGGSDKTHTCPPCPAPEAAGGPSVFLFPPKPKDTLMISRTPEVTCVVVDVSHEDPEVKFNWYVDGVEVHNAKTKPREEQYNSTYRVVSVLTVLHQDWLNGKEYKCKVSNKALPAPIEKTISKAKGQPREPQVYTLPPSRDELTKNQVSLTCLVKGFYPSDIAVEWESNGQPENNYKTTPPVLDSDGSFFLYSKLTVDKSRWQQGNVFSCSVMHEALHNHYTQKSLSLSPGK
light: EIVLTQSPGTLSLSPGERATLSCRASQSVSANYLAWYQQKPGQAPRLLIYGASSRATGIPDRFSGSGSGTDFTLTISRLEPEDFAVYYCQQSYQRPLTFGQGTKVEIKRTVAAPSVFIFPPSDEQLKSGTASVVCLLNNFYPREAKVQWKVDNALQSGNSQESVTEQDSKDSTYSLSSTLTLSKADYEKHKVYACEVTHQGLSSPVTKSFNRGEC
B3: 6B1 BisAb C2+2 (L2K scFv fused to the C-terminus of the 6B1 IgG1 heavy chain) (bispecific antibody)
heavy: not shown
light: B2 light
notes: copies: 2 + 2

What was measured:
[1] = target: CCCK phosphopeptide/HLA-A2 complex on T2 cells (human, phosphoserine at position 7); test: flow cytometry, T2 cells pulsed with 20 µg/ml peptide (FIG. 11)
[2] = target: b-catenin phosphopeptide/HLA-A2 complex on T2 cells (human, phosphoserine at position 4); test: as above
[3] = target: T1, HLA-A2 molecule on T2 cells (T2 cells alone, not pulsed) (human); test: flow cytometry, titration of 6B1 on unpulsed T2 cells (FIG. 1C)
T1 construct: Stands both for the target 'T2 cells alone' and for the partner of the pulsed peptides in the T2 stabilization assays; also called HLA-A02

[4] = target: T1, HLA-A2 molecule on T2 cells (T2 cells …); test: flow cytometry, unpulsed T2 cells, secondary anti-His-tag mAb

| Binder | binding result [1] | binding result [2] | binding result [3] | binding result [4] |
| --- | --- | --- | --- | --- |
| B1 | no binding | no binding | no binding (tested: 10 µg/ml to 0.1 µg/ml) | – |
| B2 | – | – | – | no binding (tested: 1 or 0.1 µg/ml) |
| B3 | – | – | – | no binding (tested: 1 or 0.1 µg/ml) |
